Laboratory results from doi:10.1101/2022.09.22.509106 (bioRxiv, 2022).
Each block holds one binder with its values, some of them ahead of it.

Assays:
[1] = molecular target: T1, purified human C1q protein (human, UniProt P02745 23-245; P02746 28-253; P02747 29-245); assay: immunostaining of cells or tissue
[2] = molecular target: the molecule itself; assay: negative staining electron microscopy
[3] = molecular target: T1, purified human C1q protein; assay: pull-down

T1 sequence (P02745 23-245, chain 1 of 3): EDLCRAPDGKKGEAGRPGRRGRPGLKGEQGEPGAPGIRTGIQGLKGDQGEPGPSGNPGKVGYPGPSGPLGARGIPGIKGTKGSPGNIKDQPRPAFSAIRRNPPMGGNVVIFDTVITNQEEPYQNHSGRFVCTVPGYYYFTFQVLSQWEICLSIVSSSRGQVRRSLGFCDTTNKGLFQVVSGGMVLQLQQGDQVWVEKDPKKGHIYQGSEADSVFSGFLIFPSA
T1 sequence (P02746 28-253, chain 2 of 3): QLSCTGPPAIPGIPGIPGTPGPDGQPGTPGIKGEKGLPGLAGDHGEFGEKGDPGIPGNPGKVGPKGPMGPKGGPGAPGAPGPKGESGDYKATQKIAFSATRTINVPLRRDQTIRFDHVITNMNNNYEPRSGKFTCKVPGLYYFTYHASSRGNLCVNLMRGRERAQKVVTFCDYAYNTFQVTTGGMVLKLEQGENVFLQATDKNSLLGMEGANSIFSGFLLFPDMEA
T1 sequence (P02747 29-245, chain 3 of 3): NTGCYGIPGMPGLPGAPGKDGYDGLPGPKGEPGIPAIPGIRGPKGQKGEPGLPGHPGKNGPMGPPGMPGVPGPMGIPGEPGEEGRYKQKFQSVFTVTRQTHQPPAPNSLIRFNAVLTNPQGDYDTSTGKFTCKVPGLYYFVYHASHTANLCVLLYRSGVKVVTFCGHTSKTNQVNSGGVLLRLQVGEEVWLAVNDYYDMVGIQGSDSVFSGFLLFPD

Kd [1]: ~2 nM
B1: Nptxr and Nptx2 co-expressed on a stable tetracycline-inducible CHO cell-line (Nptxr/x2) (complex, human)
chain 1: MKFLAVLLAAGMLAFLGAVICIIASVPLAASPARALPGGADNASVASGAAASPGPQRSLSALHGAGGSAGPPALPGAPAASAHPLPPGPLFSRFLCTPLAAACPSGAQQGDAAGAAPGEREELLLLQSTAEQLRQTALQQEARIRADQDTIRELTGKLGRCESGLPRGLQGAGPRRDTMADGPWDSPALILELEDAVRALRDRIDRLEQELPARVNLSAAPAPVSAVPTGLHSKMDQLEGQLLAQVLALEKERVALSHSSRRQRQEVEKELDVLQGRVAELEHGSSAYSPPDAFKISIPIRNNYMYARVRKALPELYAFTACMWLRSRSSGTGQGTPFSYSVPGQANEIVLLEAGHEPMELLINDKVAQLPLSLKDNGWHHICIAWTTRDGLWSAYQDGELQGSGENLAAWHPIKPHGILILGQEQDTLGGRFDATQAFVGDIAQFNLWDHALTPAQVLGIANCTAPLLGNVLPWEDKLVEAFGGATKAAFDVCKGRAKA
chain 2: GAQDSPAPGSRFVCTALPPEAVHAGCPLPAMPMQGGAQSPEEELRAAVLQLRETVVQQKETLGAQREAIRELTGKLARCEGLAGGKARGAGATGKDTMGDLPRDPGHVVEQLSRSLQTLKDRLESLEHQLRANVSNAGLPGDFREVLQQRLGELERQLLRKVAELEDEKSLLHNETSAHRQKTESTLNALLQRVTELERGNSAFKSPDAFKVSLPLRTNYLYGKIKKTLPELYAFTICLWLRSSASPGIGTPFSYAVPGQANEIVLIEWGNNPIELLINDKVAQLPLFVSDGKWHHICVTWTTRDGMWEAFQDGEKLGTGENLAPWHPIKPGGVLILGQEQDTVGGRFDATQAFVGELSQFNIWDRVLRAQEIVNIANCSTNMPGNIIPWVDNNVDVFGGASKWPVETCEERLLDL

B2: neuronal pentraxin 2 (Nptx2), purified recombinant, His-tagged (natural protein, UniProt P47972 16-431, looked up)
chain: B1 chain 2
stoichiometry N [2]: 6

binding result [3]: binds
B3: Rat Nptx2 pentraxin domain (X2-PD) (domain or fragment, UniProt P97738 224-425, looked up)
chain: DAFKVSLPLRTNYLYGKIKKTLPELYAFTICLWLRSSASPGIGTPFSYAVPGQANEIVLIEWGNNPIELLINDKVAQLPLFVSDGKWHHICITWTTRDGMWEAFQDGEKLGTGENLAPWHPIKPGGVLILGQEQDTVGGRFDATQAFVGELSQFNIWDRVLRAQEIINIANCSTNMPGNIIPWVDNNVDVFGGASKWPVETC
